Test results published in patent publication US6479237 (INSTITUT NATIONAL DE LA SANTE ET DE LA RECHERCHE MEDICALE …, dated 2002).

B1: LexA-Cdk7 (other, UniProt P0A7C2 1-202, looked up)
chain: MKALTARQQEVFDLIRDHISQTGMPPTRAEIAQRLGFRSPNAAEEHLKALARKGVIEIVSGASRGIRLLQEEEEGLPLVGRVAAGEPLLAQQHIEGHYQVDPSLFKPNADFLLRVSGMSMKDIGIMDGDLLAVHKTQDVRNGQVVVARIDDEVTVKRLKKQGNKVELLPENSEFKPIVVDLRQQSFTIEGLAVGVIRNGDWLMALDVKSRAKRYEKLDFLGEGQFATVYKARDKNTNQIVAIKKIKLGHRSEAKDGINRTALREIKLLQELSHPNIIGLLDAFGHKSNISLVFDFMETDLEVIIKDNSLVLTPSHIKAYMLMTLQGLEYLHQHWILHRDLKPNNLLLDENGVLKLADFGLAKSFGSPNRAYTHQVVTRWYRAPELLFGARMYGVGVDMWAVGCILAELLLRVPFLPGDSDLDQLTRIFETLGTPTEEQWPDMCSLPDYVTFKSFPGIPLHHIFSAAGDDLLDLIQGLFLFNPCARITATQALKMKYFSNRPGPTPGCQLPRPNCPVETLKEQSNPALAIKRKRTEALEQGGLPKKLIF
notes: Fusion protein expressed in yeast L40 from the ADH constitutive promoter; also called Lex-Cdk7

Key:
[1] = target: B1; experiment: cell-based or functional assay
[2] = target: B1; experiment: yeast three-hybrid (L40), LexA-Cdk7 with Cyclin H expressed; growth test and β-galactosidase test
[3] = target: T1, VP16 fused with XPB (UniProt P19447 1-782); experiment: as above
T1 construct: One of the five TFIIH core sub-units put into pVP16 as specificity controls
T1 sequence (P19447 whole entry, the tested form may be a part): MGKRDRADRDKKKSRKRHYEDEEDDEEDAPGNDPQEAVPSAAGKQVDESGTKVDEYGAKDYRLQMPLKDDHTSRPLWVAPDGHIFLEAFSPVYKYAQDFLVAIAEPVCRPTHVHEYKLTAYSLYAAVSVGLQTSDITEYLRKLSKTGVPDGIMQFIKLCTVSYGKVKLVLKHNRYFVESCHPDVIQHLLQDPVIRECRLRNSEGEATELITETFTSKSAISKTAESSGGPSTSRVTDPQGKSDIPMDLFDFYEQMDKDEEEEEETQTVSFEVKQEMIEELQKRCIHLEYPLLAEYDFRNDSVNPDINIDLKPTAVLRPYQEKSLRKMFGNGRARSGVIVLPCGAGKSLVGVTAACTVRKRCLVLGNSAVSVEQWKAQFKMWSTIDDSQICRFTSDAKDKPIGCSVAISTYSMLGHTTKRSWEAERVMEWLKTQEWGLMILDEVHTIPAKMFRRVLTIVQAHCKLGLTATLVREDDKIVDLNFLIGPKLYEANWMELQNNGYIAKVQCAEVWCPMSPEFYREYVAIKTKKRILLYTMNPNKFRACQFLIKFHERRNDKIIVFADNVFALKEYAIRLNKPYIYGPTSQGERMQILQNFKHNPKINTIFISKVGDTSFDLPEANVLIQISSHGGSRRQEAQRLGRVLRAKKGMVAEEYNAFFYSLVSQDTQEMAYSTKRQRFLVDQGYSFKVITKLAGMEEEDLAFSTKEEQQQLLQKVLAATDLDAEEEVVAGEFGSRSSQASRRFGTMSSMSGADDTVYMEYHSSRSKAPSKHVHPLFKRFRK

[4] = target: T2, VP16 fused with XPD (UniProt P18074 1-760); experiment: as above
T2 construct: One of the five TFIIH core sub-units put into pVP16 as specificity controls

Binder	binding result [2]	further results
VP16-MAT1 (other) STAPPTDVSLGDELHLDGEDVAMAHADALDDFDLDMLGDGDSPGPGFTPHDSAPYGALDMADFEFEQMFTDALGIDEYGGMDDQGCPRCKTTKYRNPSLKLMVNVCGHTLCESCVDLLFVRGAGNCPECGTPLRKSNFRVQLFEDPTVDKEVEIRKKVLKIYNKREEDFPSLREYNDFLEEVEEIVFNLTNNVDLDNTKKKMEIYQKENKDVIQKNKLKLTREQEELEEALEVERQENEQRRLFIQKEEQLQQILKRKNKQAFLDELESSDLPVALLLAQHKDRSTQLEMQLEKPKPVKPVTFSTGIKMGQHISLAPIHKLEEALYEYQPLQIETYGPHVPELEMLGRLGYLNHVRAASPQDLAGGYTSSLACHRALQDAFSGLFWQPS		inhibition of the β-Gal activity by methionine (repression of Cyclin H) [1]: > 6 fold
VP16 fused with p44 (other, One of the five TFIIH core sub-units put into pVP16 as specificity controls) MDEEPERTKRWEGGYERTWEILKEDESGSLKATIEDILFKAKRKRVFEHHGQVRLGMMRHLYVVVDGSRTMEDQDLKPNRLTCTLKLLEYFVEEYFDQNPISQIGIIVTKSKRAEKLTELSGNPRKHITSLKKAVDMTCHGEPSLYNSLSIAMQTLKHMPGHTSREVLIIFSSLTTCDPSNIYDLIKTLKAAKIRVSVIGLSAEVRVCTVLARETGGTYHVILDESHYKELLTHHVSPPPASSSSECSLIRMGFPQHTIASLSDQDAKPSFSMAHLDGNTEPGLTLGGYFCPQCRAKYCELPVECKICGLTLVSAPHLARSYHHLFPLDAFQEIPLEEYNGERFCYGCQGELKDQHVYVCAVCQNVFCVDCDVFVHDSLHCCPGCIHKIPAPSGV	no binding	
B1		binding result [3]: no binding; binding result [4]: no binding
VP16 fused with p34 (other, One of the five TFIIH core sub-units put into pVP16 as specificity controls) MVSDEDELNLLVIVVDANPIWWGKQALKESQFTLSKCIDAVMVLGNSHLFMNRSNKLAVIASHIQESRFLYPGKNGRLGDFFGDPGNPPEFNPSGSKDGKYELLTSANEVIVEEIKDLMTKSDIKGQHTETLLAGSLAKALCYIHRMNKEVKDNQEMKSRILVIKAAEDSALQYMNFMNVIFAAQKQNILIDACVLDSDSGLLQQACDITGGLYLKVPQMPSLLQYLLWVFLPDQDQRSQLILPPPVHVDYRAACFCHRNLIEIGYVCSVCLSIFCNFSPICTTCETAFKISLPPVLKAKKKKLKVSA	no binding	
VP16 alone (not containing any fused protein) (other, Negative control) STAPPTDVSLGDELHLDGEDVAMAHADALDDFDLDMLGDGDSPGPGFTPHDSAPYGALDMADFEFEQMFTDALGIDEYGG	no binding	
